According to PMC9815587, “The structure of the human LACTB filament reveals the mechanisms of assembly and membrane binding” (PLOS Biology, 2022):
Changes are numbered by the printed parent chain.

B1: human LACTB (residues 97 to 547), wild-type (enzyme, UniProt P83111 97-547, looked up)
chain: APPCSRCFARAIESSRDLLHRIKDEVGAPGIVVGVSVDGKEVWSEGLGYADVENRVPCKPETVMRIASISKSLTMVALAKLWEAGKLDLDIPVQHYVPEFPEKEYEGEKVSVTTRLLISHLSGIRHYEKDIKKVKEEKAYKALKMMKENVAFEQEKEGKSNEKNDFTKFKTEQENEAKCRNSKPGKKKNDFEQGELYLREKFENSIESLRLFKNDPLFFKPGSQFLYSTFGYTLLAAIVERASGCKYLDYMQKIFHDLDMLTTVQEENEPVIYNRARFYVYNKKKRLVNTPYVDNSYKWAGGGFLSTVGDLLKFGNAMLYGYQVGLFKNSNENLLPGYLKPETMVMMWTPVPNTEMSWDKEGKYAMAWGVVERKQTYGSCRKQRHYASHTGGAVGASSVLLVLPEELDTETINNKVPPRGIIVSIICNMQSVGLNSTALKIALEFDKDRSD
notes: human LACTB (serine beta-lactamase-like protein, mitochondrial), residues 97 to 547 of the gene product of residues 1 to 547; Assembles into helical filaments of stacked antiparallel dimers; number of copies not fixed; also called WT LACTB; serine beta-lactamase-like protein; source: E. coli BL21(DE3)-RIPL, purified (Ni-NTA, tag removed with Ulp1, SEC on Superose 6 Increase); not shown: His6, …
B2: human LACTB (residues 97 to 547) 259EAxAxEAE266 mutant (enzyme, UniProt P83111 97-547, looked up)
chain: B1 chain with K163E, N164A, F166A, K168E, F169A, K170E
notes: human LACTB, residues 97 to 547, motif 259KNxFxKFK266 changed to 259EAxAxEAE266; single changes counted out from the printed motifs; source: E. coli BL21(DE3)-RIPL, purified (Ni-NTA, tag removed with Ulp1, SEC on Superose 6 Increase); not shown: His6, N-terminal, cleaved; SUMO, N-terminal, cleaved
B3: human LACTB (residues 97 to 547) R117E (enzyme, UniProt P83111 97-547, looked up)
chain: B1 chain with R21E
notes: human LACTB, residues 97 to 547, polymer interface 1 charge-reversal mutant; source: E. coli BL21(DE3)-RIPL, purified (Ni-NTA, tag removed with Ulp1, SEC on Superose 6 Increase); not shown: His6, N-terminal, cleaved; SUMO, N-terminal, cleaved
B4: human LACTB (residues 97 to 547) 274ExExxExxEEE284 mutant (enzyme, UniProt P83111 97-547, looked up)
chain: B1 chain with K178E, R180E, K183E, K186E, K187E, K188E
notes: human LACTB, residues 97 to 547, motif 274KxRxxKxxKKK284 changed to 274ExExxExxEEE284; single changes counted out from the printed motifs; source: E. coli BL21(DE3)-RIPL, purified (Ni-NTA, tag removed with Ulp1, SEC on Superose 6 Increase); not shown: His6, N-terminal, cleaved; SUMO, N-terminal, cleaved
B5: human LACTB (residues 97 to 547) with the flexible loop region (residues K255 to K284) replaced by a GGS linker (enzyme)
chain: APPCSRCFARAIESSRDLLHRIKDEVGAPGIVVGVSVDGKEVWSEGLGYADVENRVPCKPETVMRIASISKSLTMVALAKLWEAGKLDLDIPVQHYVPEFPEKEYEGEKVSVTTRLLISHLSGIRHYEKDIKKVKEEKAYKALKMMKENVAFEQEKEGGGSNDFEQGELYLREKFENSIESLRLFKNDPLFFKPGSQFLYSTFGYTLLAAIVERASGCKYLDYMQKIFHDLDMLTTVQEENEPVIYNRARFYVYNKKKRLVNTPYVDNSYKWAGGGFLSTVGDLLKFGNAMLYGYQVGLFKNSNENLLPGYLKPETMVMMWTPVPNTEMSWDKEGKYAMAWGVVERKQTYGSCRKQRHYASHTGGAVGASSVLLVLPEELDTETINNKVPPRGIIVSIICNMQSVGLNSTALKIALEFDKDRSD
notes: human LACTB, residues 97 up to the residue before K255; GGS linker in place of K255 to K284; human LACTB, from the residue after K284 to 547; also called ΔL6; flexible loop deletion; source: E. coli BL21(DE3)-RIPL, purified (Ni-NTA, tag removed with Ulp1, SEC on Superose 6 Increase); not shown: His6, N-terminal, cleaved; SUMO, N-terminal, cleaved
B6: human LACTB (residues 97 to 547) with the L15 loop (V467 to Y482) replaced by a GGS linker (enzyme)
chain: APPCSRCFARAIESSRDLLHRIKDEVGAPGIVVGVSVDGKEVWSEGLGYADVENRVPCKPETVMRIASISKSLTMVALAKLWEAGKLDLDIPVQHYVPEFPEKEYEGEKVSVTTRLLISHLSGIRHYEKDIKKVKEEKAYKALKMMKENVAFEQEKEGKSNEKNDFTKFKTEQENEAKCRNSKPGKKKNDFEQGELYLREKFENSIESLRLFKNDPLFFKPGSQFLYSTFGYTLLAAIVERASGCKYLDYMQKIFHDLDMLTTVQEENEPVIYNRARFYVYNKKKRLVNTPYVDNSYKWAGGGFLSTVGDLLKFGNAMLYGYQVGLFKNSNENLLPGYLKPETMVMMWTPVPNTEMSWDKEGKYAMAWGVGGSASHTGGAVGASSVLLVLPEELDTETINNKVPPRGIIVSIICNMQSVGLNSTALKIALEFDKDRSD
notes: human LACTB, residues 97 up to the residue before V467; glycine-glycine-serine (GGS) linker in place of V467 to Y482; human LACTB, from the residue after Y482 to 547; also called L15 loop replacement; removal of the L15 loop; source: E. coli BL21(DE3)-RIPL, purified (Ni-NTA, tag removed with Ulp1, SEC on Superose 6 Increase); not shown: His6, N-terminal, cleaved; SUMO, N-terminal, cleaved

Target: the molecule itself
Test: SEC; Superose 6 Increase 10/300 GL; 20 mM HEPES-NaOH (pH 7.5), 140 mM NaCl, 10 mM KCl, 1 mM MgCl2, 1 mM DTT; self-assembly, filaments elute within the void volume

Binding result, binds:
B1

Target: the molecule itself
Test: negative-stain TEM; SEC peak fractions diluted to approximately 2.0 μm (so in the source), 0.75% uranyl formate, Tecnai T12 at 100 kV; self-assembly into filaments

Binding result, binds:
B2
B3
B4
B5
B6
